Laboratory results taken from paper PMC3220268, “Phosphorylation of the Arp2 Subunit Relieves Auto-inhibitory Interactions for Arp2/3 Complex Activation” (PLoS Computational Biology, 2011).

Tests used:
[1] = molecular target: recombinant Arp2/3 complex with Arp2 T237A, T238A, and Y202A mutations (UniProt P61158 1-418; P61160 1-394; O15143 1-372; O15144 1-300; O15145 1-178; P59998 …, T237A | T238A | Y202A); experiment: pull-down; GST-NWASP VCA covalently coupled to Activated CH-sepharose 4B; beads added to Arp2/3 complex, room temperature, 30 min; beads spun at 700 x g, Coomassie-stained gels quantified and fitted; details: both partners purified
[2] = molecular target: recombinant Arp2/3 complex with ARPC4 R105A and R106A mutations (UniProt P61158 1-418; P61160 1-394; O15143 1-372; O15144 1-300; O15145 1-178; P59998 …, R105A | R106A); experiment: as above; details: both partners purified

B1: GST-NWASP VCA (domain or fragment)
chain: PSDGDHQVPTTAGNKAALLDQIREGAQLKKVEQNSRPVSCSGRDALLDQIRQGIQLKSVADGQESTPPTPAPTSGIVGALMEVMQKRSKAIHSSDEDEDEDDEEDFEDDDEWED
Kd [1]: 0.5 µM
Kd [2]: 0.06 µM
